Laboratory results as given in article PMC9127447.

Target: dynamin 2-K562E (baculovirus) (rat)
Assay: not stated; polymerization of recombinant (baculovirus) dynamin 2 with or without Bis-T-23; method in Supplementary Figures S2E, F

## dynamin 2-K562E (baculovirus) (enzyme)
  fold increase of polymerization with Bis-T-23 against without Bis-T-23: 3.5 times
